Data from patent US20050196844.

Tested on: E. coli synthesized tau (352 residue isoform), non-phosphorylated

Substance | in vitro kinase reaction, immunoblot with anti-PY18 and 4G10
src tyrosine kinase (Upstate Biotechnologies) | Identical results were observed for src.
fyn tyrosine kinase (Upstate Biotechnologies) | fyn kinased tyr18 in vitro
